The target of assay [1] is T1, biotin-tetra-UbK48 (UniProt P0CG48 1-76, Ub monomers linked to one another via Lys48 (K48); biotin tag (site not stated)).
T1 construct: Immobilised on streptavidin-coated 96-well plates (1 ug per well); one ubiquitin repeat is meant; also called biotin tagged tetra-UbK48
Nature of the assay: the filing's modified fluorescence assay, FITC-labelled peptide on tetra-UbK48 (FIGS. 1G and 26).

The target of assay [2] is T1, biotin-tetra-UbK48. Nature of the assay: direct fluorescence plate binding: biotin-tetra-UbK48 on a streptavidin plate, labeled peptide titrated, bound peptide released with 6 M Gn.HCl and read (ex 480 nm, em 525 nm); one-site fit.

Positions of bridges follow the written chain, without caps; N, C: chain ends. code X = not defined here

We go through 1 molecule from patent US20230340027A1 (TECHNION RESEARCH AND DEVELOPMENT FOUNDATION, published 2023).

B1: (Ub4_ix_S7C)2CH2-FITC (peptide)
peptide: {CH2CO}-WLYLDDCGDWWICG-{code X-C(fluorescein-5-maleimide)-NH2}
modifications: thioether N-13 (inferred); reading uncertain; also: dimer: Cys7 joined to Cys7 of second copy by -S-CH2-S-, residue 15 not given here
notes: Dimer of peptide 29, so each chain carries the label; also called FITC labeled stapled dimer 30; 30
With B1, binding with biotin-tetra-UbK48 [1] was put at a Kd of 0.0123 µM. Besides, the “EC50 (read off the curve)” value with biotin-tetra-UbK48 [2] is about 0.01 µM.

As usually defined, the Kd is the concentration at which binding is half-saturated. The low end stands for higher affinity, the high end for lower affinity. As usually defined, the EC50 (read off the curve) is the midpoint of the concentration-response curve.
